Measurements from article PMC6366758.

What was measured:
[1] = target: Post-fusion F (human respiratory syncytial virus A2 (RSV/A2)); assay: SPR
[2] = target: RSV F710 post-fusion (human respiratory syncytial virus A2 (RSV/A2) | bacteriophage T4); assay: cryo-EM structure; single particle cryo-EM of the purified RSV F710-R4.C6 Fab complex on graphene oxide grids; C3 symmetry; overall 3.9 A
[3] = target: RSV F glycoprotein nanoparticles (human respiratory syncytial virus A2 (RSV/A2))

**Q.** With Palivizumab as the substance, how does the Kd [1] read?
**A.** 340 pM

**Q.** And the koff [1]?
**A.** 5.79e-05 s⁻¹

**Q.** How did the stoichiometry N [2] turn out when RSV F710 post-fusion was run?
**A.** 3

**Q.** With Motavizumab (antibody) as the substance, how does the RSV/A Long neutralization (IC50), micro-neutralization assay on HEp-2 cells [3] read?
**A.** 0.0208 µg/mL
